This data set concerns the molecule itself. The data set can be described thus: crystal structure; 2.8 Å, MIRAS; space group R32, one molecule in the asymmetric unit, dimer formed across a two-fold crystallographic symmetry axis; crystals from 1.8 M ammonium sulfate, 0.1 M HEPES, pH 7.5, 1-2% PEG 400.

B1: human prolylcarboxypeptidase (PRCP) (enzyme)
chain: KNYSVLYFQQKVDHFGFNTVKTFNQRYLVADKYWKKNGGSILFYTGNEGDIIWFCNNTGFMWDVAEELKAMLVFAEHRYYGESLPFGDNSFKDSRHLNFLTSEQALADFAELIKHLKRTIPGAENQPVIAIGGSYGGMLAAWFRMKYPHMVVGALAASAPIWQFEDLVPCGVFMKIVTTDFRKSGPHCSESIHRSWDAINRLSNTGSGLQWLTGALHLCSPLTSQDIQHLKDWISETWVNLAMVDYPYASNFLQPLPAWPIKVVCQYLKNPNVSDSLLLQNIFQALNVYYNYSGQVKCLNISETATSSLGTLGWSYQACTEVVMPFCTNGVDDMFEPHSWNLKELSDDCFQQWGVRPRPSWITTMYGGKNISSHTNIVFSNGELDPWSGGGVTKDITDTLVAVTISEGAHHLDLRTKNALDPMSVLLARSLEVRHMKNWIRDFYDS
modifications: N-linked glycans at Asn 101, 317, 336, 345 and 415 (Asn 47 not glycosylated); disulfide bridges 215-372, 233-310, 264-343, 364-394
notes: prolylcarboxypeptidase (PRCP), human
B1: the binding result is listed as “binds”.

The values above are taken from PMC2893456, “Structural definition and substrate specificity of the S28 protease family: the crystal structure of human prolylcarboxypeptidase” (BMC Structural Biology, 2010).
